Experimental findings from publication PMC9897471 are described below.

Data set [1] concerns the target T1, GST-BRCA1 BRCT WT (UniProt P38398 1582-1863). In words: EMSA. (Mobility shift assays separate free from complexed probe on a gel.)
Data set [2] deals with T1, GST-BRCA1 BRCT WT. In words: EMSA. The source holds these as a separate data set.

Read-outs that look alike come from different tables or passages of the source.

T1 sequence (P38398 1582-1863): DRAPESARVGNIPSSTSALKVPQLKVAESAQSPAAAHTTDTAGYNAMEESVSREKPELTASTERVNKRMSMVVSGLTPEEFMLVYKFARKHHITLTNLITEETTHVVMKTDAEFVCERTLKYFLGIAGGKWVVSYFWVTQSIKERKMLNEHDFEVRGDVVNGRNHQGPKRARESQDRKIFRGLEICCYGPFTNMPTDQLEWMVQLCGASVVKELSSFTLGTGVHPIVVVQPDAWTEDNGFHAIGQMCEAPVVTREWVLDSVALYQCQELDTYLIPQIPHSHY

B1: non-rDNA bottom ssDNA (ssDNA)
DNA: ATCCCAGCACCAGATTCAGCAATTAAGCTCTAAGCCATGAATTCAAATGACCTCTTATCA
In the case of B1, the binding result with GST-BRCA1 BRCT WT [1] was “binds”.

B2: non-rRNA bottom ssRNA (ssRNA)
RNA: AUCCCAGCACCAGAUUCAGCAAUUAAGCUCUAAGCCAUGAAUUCAAAUGACCUCUUAUCA
Regarding B2, in the data set with GST-BRCA1 BRCT WT [2], the binding result is “binds”.

B3: non-rRNA dsRNA (bottom/top) (dsRNA)
RNA 1: AUCCCAGCACCAGAUUCAGCAAUUAAGCUCUAAGCCAUGAAUUCAAAUGACCUCUUAUCA
RNA 2: UGAUAAGAGGUCAUUUGAAUUCAUGGCUUAGAGCUUAAUUGCUGAAUCUGGUGCUGGGAU
As for B3, the binding result in the data set with GST-BRCA1 BRCT WT [2] is “no binding”.
